The nanobody polyreactivity screen of Harvey et al. (2022)

Assay: yeast display, Sf9 membrane polyspecificity reagent, FACS + sequencing; frameworks hold sequencing errors
How it was run: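 Sorting gates, low and high (top ~1%), were placed on anti-HA fluorescence to track expression and on streptavidin fluorescence to track reagent binding. A clone's polyreactivity label is taken from the gate it came out of. The reagent was 10% biotinylated, detergent-solubilized Sf9 membrane, applied for 1 hour at 4 °C to galactose-induced yeast display cells.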

| Sequence | polyreactivity (PSR sort gate) |
| --- | --- |
| QVQLVESGGGLVQAGGSLRLSCAASGRIFSTNAMGWYRQAPGKERELVARINSGGGSTYADSVKGRFTISRDNAKNTVYLQMNSLKPEDTAVYYCAASRRFQWRAYGYWGQGTQVTVSS | high polyreactivity |
| QVQLVESGGGLVQAGGSLRLSCAASGRIFSTNAMGWYRQAPGTERELVAAISRRGASTYYADSVKGRFTISRDNAKNTVYLQMNSLKPEDTAVYYCAAVIGTGGRYNYWGQGTQVTVSS | high polyreactivity |
| QVQLVESGGGLVQAGGSLRLSCAASGRIFSTYVMGWYRQAPGKERELVAAITRGGSTNYADSVKGRFTISRDNAKNTVYLQMNSLKPEDTAVYYCNAQRRGTYYWGQATQVTVSS | high polyreactivity |
| QVQLVESGGGLVQAGGSLRLSCAASGRIFSVYAMGWYRQAPGKEREFVAAITKGGVGTYYADSVKGRFTISRDHAKNSVYLQMNSLKPEDTAVYYFAARHYYGADRYYSWGQGTQVTVSS | high polyreactivity |
| QVQLVESGGGLVQAGGSLRLSCAASGRIFSWYAMGWYRQAPGKERELVADITNGGSTYYADSVKGRFTISRDNAKNTVYLQMNSLKPEDTAVYYCAAAYIHRLGRVLPSVYSIGRDYWGQGTQVTVSS | low polyreactivity |
| QVQLVESGGGLVQAGGSLRLSCAASGRIFSWYTMGWYRQAPGKERELVASITTGGRTYYADSLKGRFTNSRDNAKNTVYLQMNSLKPEDTAVYSCIVLSTLFGYYRWGDYWGQGTQVTVSS | high polyreactivity |
| QVQLVESGGGLVQAGGSLRLSCAASGRIFSYMGWYRQAPGKERELVASISWSGGSTYYADSVKGRFTISRDNAKNTVYLQMNSLKPEDTAVYYCAAYLRSYVRYYYWGQGTQVTVSS | high polyreactivity |
| QVQLVESGGGLVQAGGSLRLSCAASGRIFSYNAMGWYRQAPGKERELVAAISSDGSTYYADSVKGRFTISRDNAKNSVYLQMNSLKPEDTAVYYCAADTWRDGDDYWGQGTQVTVSS | low polyreactivity |
| QVQLVESGGGLVQAGGSLRLSCAASGRIFSYNAMGWYRQAPGKERELVASISWSGGRTYYADSVKGRFTISRDNAKNTVYLQMNSLKPEDTAVYYCNAAYYTRVWGYDYWGQGTQVTVSS | high polyreactivity |
| QVQLVESGGGLVQAGGSLRLSCAASGRIFSYYAMGWYRQAPGKERELVAAISKGGTSTYYADSVKGRFTISRDNSKNTVYLQMNRLKPEDTAVYYCAAARPKPVDYLGQGTQVTVSS | high polyreactivity |
| QVQLVESGGGLVQAGGSLRLSCAASGRIFSYYAMGWYRQAPGKERELVASISTSSGSTYYADSVKGRFTISRDNAKNTVYLQMNSLKPEDTAVYYCNADYTGYYRWRNDDYWGQGTQVTVSS | high polyreactivity |
| QVQLVESGGGLVQAGGSLRLSCAASGRIFSYYAMGWYRQAPGKERELVASITSGGSTYADSVKGRFTISRDNAKNTVYLQMNSLKPEDTAVYYCNARKRHYYGYYYWGQGTQVTVSS | high polyreactivity |
| QVQLVESGGGLVQAGGSLRLSCAASGRIFSYYTMGWYRQAPGKEREMVAAITWNGGSTYYADSVKGRFTISRDNAKNTVYLQMNSLKPEDTGVYYCNRDVRYVGPSGFDYWGQGTQVTVSS | high polyreactivity |
| QVQLVESGGGLVQAGGSLRLSCAASGRIFSYYTMGWYRQAPGTERELVAAITWGGGSTSYADSVKGRFTISRDNAKNTVYLQMNSLKPEDTAVYYCAESPGANRMDYWGQGTQVTVSS | low polyreactivity |
| QVQLVESGGGLVQAGGSLRLSCAASGRIFSYYTMGWYRQEPRKERELVATITSGVNTNYADSVKGRFTISRDNAKNTVYLQMNSLKPEDTAVFYCIARGTAERDYWGQGTQVTVSS | high polyreactivity |
| QVQLVESGGGLVQAGGSLRLSCAASGRIFSYYVMGWSRQAPGKERELVAAISYRGGGTYYADSVKGRFTISRDNAKNTVYLQMNSLKPEDTAVYYCNADTYSNTYRAYDYWGQGTQVTVSS | low polyreactivity |
| QVQLVESGGGLVQAGGSLRLSCAASGRIFTANAMGWYRQAPGKERELVAAISWRGGSTYYADSVKGRFTISRDNAKNTVYLQMNSLKPEDTAVYYCNKVGATWRQWFGYWGQGTQVTVSS | high polyreactivity |
| QVQLVESGGGLVQAGGSLRLSCAASGRIFTAYTMGWYRQAPGKERELVAAISTSGTSTYYADSVKGRFTISRDNAKNTVYLQMHSLKPEDTAVYYCATDYYYYPHSQYDYWGQGTQVTVSS | low polyreactivity |
| QVQLVESGGGLVQAGGSLRLSCAASGRIFTEYVMGWYRQAPGKERELVAAAITRGGSTNYADSVKGRFTISRDNAKNTVYLQMNSLKPEDTAVYYCNKDDWPVSRQLYTGKYDSWGQGTQVTVSS | low polyreactivity |
| QVQLVESGGGLVQAGGSLRLSCAASGRIFTGNALGWYRPAPGKERELVAGISTSGGSTYYADSVKGRFTISRDNAKNTVYLQMNSLKPEDTAVYYCAADWYYRRSYRRMNYWGQGTQVTVSS | high polyreactivity |
| QVQLVESGGGLVQAGGSLRLSCAASGRIFTGNTMGWYRQAPGKERELVATINSNGGSTYYADSVKGRFTISRDNAKNTVYLQMNSLKPEDTAVYYCAVVRNYVSRYRFYYWGQGTQVTVSS | high polyreactivity |
| QVQLVESGGGLVQAGGSLRLSCAASGRIFTGNVMGWYRQAPGKERELVAAITYRGGSTYYADSVKGRFTISRDNAKNTVYLQMNSLKPEDTAVYYCAAGYFLGHTYGGDYWGQGTQVTVSS | low polyreactivity |

| Sequence | polyreactivity (PSR sort gate) |
| --- | --- |
| QVQLVESGGGLVQAGGSLRLSCAASGRIFTGYAMGWSRQAPGKERELVASITWRGGSTSYADSVKGRFTISRDNAKNTVYLQMNRLKPEDTAVYYCAAQKWYYPYYWGQGTQVTVSS | high polyreactivity |
| QVQLVESGGGLVQAGGSLRLSCAASGRIFTGYAMGWYRQAPGKERELVAAINSGGRTNYADSVKGRFTISRDNAKNTVYLQMNSLKPEDTAVYYCAARYTNYGGYYWGQGTQVTVSS | high polyreactivity |
| QVQLVESGGGLVQAGGSLRLSCAASGRIFTGYAMGWYRQAPGKERELVAAISRGGSTNYADSVKGRFTISRDNAKNTVFLQMNSLKPEDTAVYYCAAGVHWDRGDYWGQGTQVTVSS | low polyreactivity |
| QVQLVESGGGLVQAGGSLRLSCAASGRIFTHNAMGWYRQAHGKERELVAAISFSGVSTYYADSVKGRFTISRDNAKNTVYLQMNSLKPEDTAVYYCARRYWYPDAFYRYDYWGQGTQVTVSS | low polyreactivity |
| QVQLVESGGGLVQAGGSLRLSCAASGRIFTHNAMGWYRQAHGKERELVAAISYSGVSTYYADSVKGRFTISRDNAKNTVYLQMNSLIPEDTAVYYCARRYWYPDAFYRYDYWGQGTQGTVSS | low polyreactivity |
| QVQLVESGGGLVQAGGSLRLSCAASGRIFTHNAMGWYRQAPGKERELVAAITIGGRTNYADSVKGRFTISRDNAKNTVYLQMNSLKPEDTAVYYCARRYGTWNAYDYWGQGTQVTVSS | low polyreactivity |
| QVQLVESGGGLVQAGGSLRLSCAASGRIFTHYAMGWYRQAPGKERELVAAISRTGGTTNYADSVKGRFTISRDNAKNTVYLQMNSLKPEDTAVYYCAAVGKGAKDYFKYYSLGQGTQVTVSS | high polyreactivity |
| QVQLVESGGGLVQAGGSLRLSCAASGRIFTINAMGWYRQAPGKERELVAAISNSGGRTYADSVKGRFTISRDNAKNTVYLLMNSLKAEDTAVYYCAKRYRFHFWGQGTQVTVSS | low polyreactivity |
| QVQLVESGGGLVQAGGSLRLSCAASGRIFTIYAMGLYRQEPGKERELVASITWRGGRTYYADSVKGRFTISRDNAKNTVYLQMNSLKPEDTAVYYCAAEFYRWGSLSFSYDYWGQGTQVTVSS | low polyreactivity |
| QVQLVESGGGLVQAGGSLRLSCAASGRIFTKNAMGWYRQAPGKERELVAAISWSTSRTYYADSVKGRFTISRDNAKNTVYLQMNSLKPEDTAVYYCAAVYRLRGAFSRGYWGQGTQVTVSS | high polyreactivity |
| QVQLVESGGGLVQAGGSLRLSCAASGRIFTKYAMGWYRQAPGKERELVAAISGSGGPTYYADSVKGRFTISRDNAKNTVYLQINSLKPEDTAVYYCGVPEIFDPKYQNDYWGQGTQVTVSS | low polyreactivity |
| QVQLVESGGGLVQAGGSLRLSCAASGRIFTKYAMGWYRQAPGKERELVAGISSSGGSTYYADSVKGRFTISRDIAKNTVYLQMNSLKPEDTAVYYCAARGYYKYDYWGQGTQVTVSS | high polyreactivity |
| QVQLVESGGGLVQAGGSLRLSCAASGRIFTKYAMGWYRQSPGKERELVAAITTSGGSTYYADSVKGRFTISRDNAKNTVYLQMNSLKPEDTAVYYCAARTYHRYDYWGQGTQVTVSS | high polyreactivity |
| QVQLVESGGGLVQAGGSLRLSCAASGRIFTNNAMGWYREAPGKERELVAAISKRGGSTYYADSVKGRFTISRDNAKNTVYLQMNSLKPEDTAVYYCNAREYIHWRGALGLFGSWGQGTQVTVSS | high polyreactivity |
| QVQLVESGGGLVQAGGSLRLSCAASGRIFTPNAMGWYRQAPGKERELVAAITWSGDNTYADSVKGRFTISRDNAKNTVYLQMNSLKPEDTAVYYCAAAYGYGHKKYGYWGQGTQVTVSS | low polyreactivity |
| QVQLVESGGGLVQAGGSLRLSCAASGRIFTPNAMGWYRQPPGKERELVAAITWSGDNTYADSVKGRFTISRDNAKNTVYLQMNILKPEDTAVYYCAAAYGYGHKKYGYWGQGTQVTVSS | low polyreactivity |
| QVQLVESGGGLVQAGGSLRLSCAASGRIFTPYVMGWYIQAPGKERELVADINLSGDSTSYADSVKGRFTISRDNAKNTVYLQMNSLKPEDTAVYYCAADFWLVSFQWDFEYDYWGQGTHVTVSS | low polyreactivity |
| QVQLVESGGGLVQAGGSLRLSCAASGRIFTRYAMGWYRQAPGKERELVATITKSGGSTYYADSVKGRFTISRDNAKNTVSLQMNSQKPDDTAVYYCAADSWWTYQYDYWGQGTQVTVSS | low polyreactivity |
| QVQLVESGGGLVQAGGSLRLSCAASGRIFTRYAMGWYRQAPGKERELVAVITRSGGSTYYADSVKGRFTISRDNAKNTVYLQMNSLKPEDTAVYYCNVDETGVLVAYSFDYWGQGTQVTVSS | low polyreactivity |
| QVQLVESGGGLVQAGGSLRLSCAASGRIFTRYVMGWSRQAPGKERELVAAISYRGGRTYYADSVKGRFTISRDNAKNTVYLQMNSLKPEDTAVYYCAVDYTLADVIYDYWGQGTQVTVSS | high polyreactivity |
| QVQLVESGGGLVQAGGSLRLSCAASGRIFTSNAMAWYRQAPGKERELVAAISASGGRTYYADSVKGRFTISRDNAKNTVYLQMNSLKPEDTAVYYCAALSTGRLSDHGYWGQGTQVTVSS | high polyreactivity |
